In the supplement of paper PMC10724198:
± gives the standard deviation of the averaged measurements.

Test system: Saccharomyces cerevisiae
Assay: protein stability index of tFT-peptide fusion (C-terminal peptide) (PSI (0-1 scale)); higher = more stable (slower turnover)
Settings: temperature: 30 C
Protocol: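 MPS profiling in S. cerevisiae of the yeast C-terminome library: the last 12 aa of each annotated ORF are fused to the C-terminus of a sfGFP-mCherry timer, after a GGGS linker. Cells are FACS-sorted into 8 mCherry/sfGFP bins and deep-sequenced. PSI runs from 0 (unstable) to 1 (stable); wild type and das1Δ backgrounds, two technical replicates each.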

[1] = genetic background: das1 deletion

Sequence	protein stability index [1]	protein stability index (genetic background: wild type)
KAELDRYKRENQ [SEM1 C-terminal 12 aa]	0.7052 ± 0.0058	0.709 ± 0.049
GIMVSPMKTNQR [SWI5 C-terminal 12 aa]	0.708 ± 0.025	0.6993 ± 0.0062
VFLVISQHSLHS [YDR545C-A C-terminal 12 aa]	0.6541 ± 0.0036	0.652 ± 0.011
LAKGGADVKPKK [RDL2 C-terminal 12 aa]	0.7071 ± 0.0016	0.708 ± 0.033
VVVVPSVVETRK [SSO2 C-terminal 12 aa]	0.681 ± 0.031	0.668 ± 0.026
VHCGCRGCASTD [BUD31 C-terminal 12 aa]	0.669 ± 0.0018	0.673 ± 0.017
QHLKTHKKHGDF [MSN4 C-terminal 12 aa]	0.719 ± 0.0085	0.6983 ± 0.001
DEKLHSHNASPN [YNL198C C-terminal 12 aa]	0.6788 ± 0.0032	0.697 ± 0.014
HAAEQILKHFAA [THI4 C-terminal 12 aa]	0.697 ± 0.013	0.708 ± 0.015
LPHFSHLHVHHD [YHR056W-A C-terminal 12 aa]	0.7294 ± 0.0032	0.719 ± 0.032
VYELVDAEALFS [YDR131C C-terminal 12 aa]	0.745 ± 0.02	0.682 ± 0.012
GKRNYLLSVTFV [YCR006C C-terminal 12 aa]	0.653 ± 0.012	0.6385 ± 0.0019
GARIGLQGYKSH [YNL184C C-terminal 12 aa]	0.70081 ± 0.00013	0.688 ± 0.015
KKLNRKIASIFN [ZEO1 C-terminal 12 aa]	0.718 ± 0.011	0.6644 ± 0.0016
SRLKKEFEAAAL [IDP2 C-terminal 12 aa]	0.6762 ± 0.0031	0.678 ± 0.085
EDTVNDKANFEG [STL1 C-terminal 12 aa]	0.673 ± 0.015	0.655 ± 0.015
DKITAELILNKI [EMC2 C-terminal 12 aa]	0.6872 ± 0.0017	0.6632 ± 0.0027
IKGWFVNGQVPR [PEX17 C-terminal 12 aa]	0.716 ± 0.0072	0.674 ± 0.029
GIVNFWSLEKAA [CIA1 C-terminal 12 aa]	0.716 ± 0.012	0.633 ± 0.011
REITKCKQIFHK [PTR3 C-terminal 12 aa]	0.691 ± 0.02	0.686 ± 0.028
LNRKEESDSFVA [CHS3 C-terminal 12 aa]	0.6769 ± 0.0027	0.679 ± 0.017

Sequence	protein stability index [1]	protein stability index (genetic background: wild type)
KNSDSTEKNATI [DAT1 C-terminal 12 aa]	0.702 ± 0.026	0.736 ± 0.034
ALSKVGIYTIAN [PAU10 C-terminal 12 aa]	0.702 ± 0.013	0.675 ± 0.042
TCLTGEVIFPPR [NPC2 C-terminal 12 aa]	0.7115 ± 0.0058	0.72 ± 0.017
LVEILDCEIRTL [MIC60 C-terminal 12 aa]	0.6827 ± 0.0058	0.6707 ± 0.0035
EAQSARNEKPLK [COS8 C-terminal 12 aa]	0.685 ± 0.021	0.691 ± 0.029
SKEKARALGSNF [GTT1 C-terminal 12 aa]	0.712 ± 0.016	0.686 ± 0.013
NTFVLNMSRFII [YDL068W C-terminal 12 aa]	0.6739 ± 0.003	0.365 ± 0.079
FTIYEKVLVMLA [CTP1 C-terminal 12 aa]	0.286 ± 0.017	0.20202 ± 3.5e-06
TRGEATLRANYQ [YOR008W-B C-terminal 12 aa]	0.6862 ± 0.003	0.73 ± 0.055
EDSKEYFEAANK [TSA1 C-terminal 12 aa]	0.71 ± 0.021	0.704 ± 0.0061
GKWYCDDCKKKL [PHO23 C-terminal 12 aa]	0.729 ± 0.026	0.717 ± 0.048
KVHEHDAKNDSK [CMP2 C-terminal 12 aa]	0.702 ± 0.032	0.688 ± 0.054
TTRYAKEMNIIS [HIR2 C-terminal 12 aa]	0.694 ± 0.031	0.705 ± 0.054
LKEFTQFCKDNS [MIX23 C-terminal 12 aa]	0.724 ± 0.023	0.721 ± 0.025
LDLVARTATLSN [NUP84 C-terminal 12 aa]	0.695 ± 0.014	0.713 ± 0.026
KKKKQIKNFQFG [YMR290W-A C-terminal 12 aa]	0.687 ± 0.0087	0.656 ± 0.05
NFKNSSAKSKRS [PKH2 C-terminal 12 aa]	0.682 ± 0.014	0.695 ± 0.0083
EALTKASNVNKL [CIT3 C-terminal 12 aa]	0.6972 ± 0.0031	0.65 ± 0.041
LSAGFGIGEFML [YGR079W C-terminal 12 aa]	0.72 ± 0.023	0.692 ± 0.036
VNGELKYVKPED [AFT1 C-terminal 12 aa]	0.6945 ± 0.0046	0.6909 ± 0.0017
ICYTFKHLVSHK [FRT2 C-terminal 12 aa]	0.691 ± 0.016	0.6574 ± 0.0033

Sequence	protein stability index [1]	protein stability index (genetic background: wild type)
ANFNDFYDAFYN [RSC30 C-terminal 12 aa]	0.732 ± 0.019	0.707 ± 0.026
RHRKSEDRSLEA [ATR2 C-terminal 12 aa]	0.706 ± 0.029	0.703 ± 0.062
FIYKRNKKFILN [YPQ1 C-terminal 12 aa]	0.725 ± 0.014	0.21 ± 0.019
SILRIDDIAFSR [CCT4 C-terminal 12 aa]	0.739 ± 0.033	0.71 ± 0.034
PEKWSASLKKFK [THI6 C-terminal 12 aa]	0.731 ± 0.017	0.6854 ± 0.0031
SGPSAMTKFGPR [ARP2 C-terminal 12 aa]	0.69 ± 0.032	0.6842 ± 0.0042
PHVKLFETTSGL [IRC5 C-terminal 12 aa]	0.718 ± 0.021	0.712 ± 0.014
RLSMLRPPSSSS [RSC2 C-terminal 12 aa]	0.7185 ± 0.0066	0.7059 ± 0.0021
INEDNKAYSLDY [RIM4 C-terminal 12 aa]	0.69877 ± 0.00035	0.722 ± 0.026
HIRKERTLYIYI [PIH1 C-terminal 12 aa]	0.60684 ± 0.00034	0.351 ± 0.0044
FIREFVLKNYSK [SNO2 C-terminal 12 aa]	0.669 ± 0.0099	0.71 ± 0.068
KLESSKNTSHEK [NFU1 C-terminal 12 aa]	0.725 ± 0.0084	0.705 ± 0.0085
LKNGDKPHMLKF [RPL6A C-terminal 12 aa]	0.6789 ± 0.0021	0.72 ± 0.053
KTSPTCHNMFDV [SDD4 C-terminal 12 aa]	0.7283 ± 0.0018	0.6781 ± 0.00075
FVFVNEFDVYTY [GPI12 C-terminal 12 aa]	0.716 ± 0.018	0.704 ± 0.033
GKLPSSLLSYFV [ZUO1 C-terminal 12 aa]	0.7219 ± 0.0065	0.673 ± 0.032
IVKAVKEVLSIE [PDB1 C-terminal 12 aa]	0.683 ± 0.0044	0.667 ± 0.044
PEGGDGPKYTLT [CIR2 C-terminal 12 aa]	0.688 ± 0.018	0.721 ± 0.016
EPTKKGFLVCRM [YMR320W C-terminal 12 aa]	0.771 ± 0.037	0.702 ± 0.05
MILKVSLECAVS [YDL009C C-terminal 12 aa]	0.468 ± 0.0021	0.481 ± 0.016
IEVGNGASVLIQ [TRS65 C-terminal 12 aa]	0.692 ± 0.01	0.691 ± 0.023

Sequence	protein stability index [1]	protein stability index (genetic background: wild type)
ALHLLTKFTHII [SBH2 C-terminal 12 aa]	0.733 ± 0.012	0.167 ± 0.043
PEVIDTRKDNSN [COX11 C-terminal 12 aa]	0.687 ± 0.012	0.696 ± 0.022
STSSLKRQRTDF [REX2 C-terminal 12 aa]	0.718 ± 0.011	0.712 ± 0.017
STATGKLKKRKM [RAD2 C-terminal 12 aa]	0.718 ± 0.023	0.649 ± 0.021
SRFRTNRLKGDQ [YNL042W-B C-terminal 12 aa]	0.699 ± 0.027	0.689 ± 0.026
FGSSRSEWYLAL [YPL114W C-terminal 12 aa]	0.701 ± 0.029	0.709 ± 0.031
PDCTVCSNSNSN [UBA3 C-terminal 12 aa]	0.705 ± 0.0088	0.677 ± 0.047
IRSRGRLKEVYF [SLX5 C-terminal 12 aa]	0.732 ± 0.026	0.68566 ± 0.00055
HVKDHQPGKPFI [YDR433W C-terminal 12 aa]	0.689 ± 0.023	0.708 ± 0.063
IVLPENIPLLYK [YJL195C C-terminal 12 aa]	0.694 ± 0.037	0.672 ± 0.023
PTVTRKTPDYFL [PPH22 C-terminal 12 aa]	0.696 ± 0.0091	0.718 ± 0.089
LNDIGDPTKTVQ [YPL025C C-terminal 12 aa]	0.689 ± 0.0087	0.705 ± 0.0072
EIASCSSSIYSE [DSE3 C-terminal 12 aa]	0.696 ± 0.022	0.711 ± 0.035
ALDAEKYLTSLE [TRR1 C-terminal 12 aa]	0.707 ± 0.0079	0.695 ± 0.031
TDGLNVWKTISV [RRB1 C-terminal 12 aa]	0.661 ± 0.023	0.6468 ± 0.0058
NRVVLVDHNSSS [IRS4 C-terminal 12 aa]	0.72 ± 0.024	0.727 ± 0.069
LSTKNIDDGMIS [COG7 C-terminal 12 aa]	0.706 ± 0.025	0.679 ± 0.052
VATYLREHEYDQ [AAP1 C-terminal 12 aa]	0.6847 ± 0.0021	0.7314 ± 0.0051
PLCYWHYSADTY [YIL105W-A C-terminal 12 aa]	0.7217 ± 0.0058	0.808 ± 0.039
